± gives the uncertainty stated by the source.

The series can be described thus: protein stability index of a GFP-peptide fusion (yeast GPS) (PSI 1-4); higher = more stable; sorted into four equal gates, so the index is relative within each strain. The essentials:
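Tiled yeast protein peptides of 17 residues were each joined downstream of GFP, on plasmids that also express Cherry. The pooled library was maintained in yeast, and mid-log cultures in leucine-free medium were sorted into four equal gates on the GFP/Cherry ratio. Plasmids from every gate were amplified by PCR and sequenced on Illumina, with barcodes linking reads to strains. The protein stability index of a peptide is its gate-number-weighted read frequency summed over the gates.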

DHQHILRKLKKMNNKPE [RPC53] had a protein stability index (doa10∆) of 1.87 ± 0.053, a protein stability index (pdr5∆) of 1.7 ± 0.06, a protein stability index (san1∆) of 1.78 ± 0.1 and a protein stability index (ubr1∆) of 1.51 ± 0.044.

In turn, EAMLRENIEVILSNGRM [SNF12] had a protein stability index (doa10∆) of 2.79 ± 0.063, a protein stability index (pdr5∆) of 2.82 ± 0.061, a protein stability index (san1∆) of 2.86 ± 0.046 and a protein stability index (ubr1∆) of 2.75 ± 0.059.

With EVSMNSIFAMGLCGAGT [RPN1], the protein stability index was determined as 1.68 ± 0.047 (doa10∆), 1.61 ± 0.058 (pdr5∆), 1.49 ± 0.091 (san1∆) and 1.23 ± 0.052 (ubr1∆).

On to NNGLPMKNKAETTTEED [ITC1], for which the protein stability index by setting is: (doa10∆) 2.35 ± 0.29; (pdr5∆) 3.18 ± 0.1; (san1∆) 2.94 ± 0.092; (ubr1∆) 3.03 ± 0.12.

In the case of FPGKPVDVQAPTDDKTL [YOR098C/NUP1], the protein stability index runs as follows: (doa10∆) 2.78 ± 0.068; (pdr5∆) 3.02 ± 0.1; (san1∆) 2.93 ± 0.089; (ubr1∆) 2.75 ± 0.071.

Take YASFNDTFVHVTDLSGK [RPS14B]: the protein stability index is, setting by setting: (doa10∆) 2.31 ± 0.098; (pdr5∆) 2.88 ± 0.08; (san1∆) 2.52 ± 0.084; (ubr1∆) 2.73 ± 0.094.

In turn, DLLILTRSIKEKWLLNQ [SRB6] showed a protein stability index (doa10∆) of 1.12 ± 0.1, a protein stability index (pdr5∆) of 1.35 ± 0.19, a protein stability index (san1∆) of 1.32 ± 0.2 and a protein stability index (ubr1∆) of 1.24 ± 0.17.

With IRNCATEAGFFAIRDDR [RPT4], the protein stability index (doa10∆) turned out to be 2.82 ± 0.062, the protein stability index (pdr5∆) was determined as 3.24 ± 0.079, the protein stability index (san1∆) was 2.78 ± 0.097 and the protein stability index (ubr1∆) worked out at 2.91 ± 0.042.

With KAKERLQALKANDEEAY [SNF2], the protein stability index by setting is: (doa10∆) 1.81 ± 0.14; (pdr5∆) 2.51 ± 0.15; (san1∆) 2.55 ± 0.067; (ubr1∆) 1.77 ± 0.045.

Consider EPFFLVTKITDMLLHKY [SRB8], for which the protein stability index by setting is: (doa10∆) 2.86 ± 0.11; (pdr5∆) 2.52 ± 0.088; (san1∆) 2.88 ± 0.061; (ubr1∆) 2.72 ± 0.083.

Turning to AMHYSSNIELAFSSVEH [COB], the protein stability index came out at 1.93 ± 0.058 (doa10∆), 1.9 ± 0.06 (pdr5∆), 1.91 ± 0.087 (san1∆) and 2.09 ± 0.082 (ubr1∆).

Turning to KKEEEEQLSEEDAKLKT [RPN1], the protein stability index (doa10∆) worked out at 3.19 ± 0.16, the protein stability index (pdr5∆) was determined as 3.24 ± 0.07, the protein stability index (san1∆) was 3.34 ± 0.11 and the protein stability index (ubr1∆) was determined as 3.06 ± 0.14.

On to GIGGDHAKFSPVSTASY [RPC40], for which the protein stability index is, setting by setting: (doa10∆) 2.59 ± 0.079; (pdr5∆) 2.9 ± 0.12; (san1∆) 2.28 ± 0.098; (ubr1∆) 2.9 ± 0.062.

For DIDVTIVSKEYEKNFEA [ESC2], the protein stability index is 3.27 ± 0.15 (doa10∆), 3.06 ± 0.14 (pdr5∆), 3.24 ± 0.088 (san1∆) and 3.42 ± 0.16 (ubr1∆).

For the sequence IFHPMIHYSWSFILYYR [YML103C/NUP188], the protein stability index reads like this: (doa10∆) 1.74 ± 0.051; (pdr5∆) 1.68 ± 0.032; (san1∆) 1.69 ± 0.063; (ubr1∆) 1.98 ± 0.048.

On to DPNEVKYLYLRAVGGEV [RPL12A], for which the protein stability index (doa10∆) was 1.77 ± 0.073, the protein stability index (pdr5∆) is 1.89 ± 0.12, the protein stability index (san1∆) turned out to be 1.98 ± 0.18 and the protein stability index (ubr1∆) stood at 1.53 ± 0.039.

As for GDYVAYQLNGVAPFMIK [YMR129W/POM152], the protein stability index came to 1.53 ± 0.075 (doa10∆), 1.49 ± 0.08 (pdr5∆), 1.66 ± 0.17 (san1∆) and 1.84 ± 0.059 (ubr1∆).

As to IVQFTYGGDGLDPLEME [RPO31], the protein stability index runs as follows: (pdr5∆) 3.09 ± 0.2; (san1∆) 2.55 ± 0.27.

For the sequence TKPSLRKASCIWLLSYI [ECM29], the protein stability index by setting is: (doa10∆) 1.75 ± 0.054; (pdr5∆) 1.88 ± 0.051; (san1∆) 1.86 ± 0.077; (ubr1∆) 1.86 ± 0.038.

LSIICVGGHNVTIREQI [SIR3]: the protein stability index was determined as 2.22 ± 0.069 (doa10∆), 1.65 ± 0.042 (pdr5∆), 1.78 ± 0.092 (san1∆) and 1.81 ± 0.056 (ubr1∆).

Regarding NESKIKELNEKIQKLEE [RPN7], the protein stability index runs as follows: (doa10∆) 2.95 ± 0.16; (pdr5∆) 2.48 ± 0.11; (san1∆) 2.26 ± 0.14; (ubr1∆) 2.09 ± 0.14.

Take ESLQKRELLKSQVEDFT [SIR3]: the protein stability index worked out at 3.15 ± 0.045 (doa10∆), 3.22 ± 0.054 (pdr5∆), 3.12 ± 0.048 (san1∆) and 3.27 ± 0.043 (ubr1∆).

In the case of KVLAAHTKFEVAIGLNG [RRP40], the protein stability index is 2.44 ± 0.088 (doa10∆), 2.56 ± 0.062 (pdr5∆), 2.34 ± 0.072 (san1∆) and 2.89 ± 0.057 (ubr1∆).

As to GNGITNTTTRVIPQVEV [SNF5], the protein stability index turned out to be 3.02 ± 0.15 (doa10∆), 2.58 ± 0.095 (pdr5∆), 1.98 ± 0.21 (san1∆) and 2.49 ± 0.1 (ubr1∆).

With SDPVCLFVCNKDPDVPL [POP3], the protein stability index was 1.91 ± 0.053 (doa10∆), 2.35 ± 0.075 (pdr5∆), 2.31 ± 0.084 (san1∆) and 2.52 ± 0.081 (ubr1∆).

On to KSLHEMNERDWRILKED [PRP28], for which the protein stability index reads like this: (doa10∆) 3.4 ± 0.19; (pdr5∆) 3.05 ± 0.2; (san1∆) 3.33 ± 0.072; (ubr1∆) 3.01 ± 0.23.

For the sequence VSFNGFKLPKKFPPPTP [BRR2], the protein stability index stood at 2.57 ± 0.07 (doa10∆), 2.9 ± 0.067 (pdr5∆), 2.8 ± 0.06 (san1∆) and 2.93 ± 0.052 (ubr1∆).

Consider EFKIEQNNEQNPIDPFN [YDL116W/NUP84], for which the protein stability index reads like this: (doa10∆) 2.96 ± 0.087; (pdr5∆) 3.11 ± 0.087; (san1∆) 3.05 ± 0.067; (ubr1∆) 3.23 ± 0.061.

Regarding NENPYNNGVSNLWKNIF [COR1], the protein stability index turned out to be 1.96 ± 0.12 (pdr5∆), 2.01 ± 0.15 (san1∆) and 1.86 ± 0.07 (ubr1∆).

On to KNESATINEMMKHLGRS [FAS2], for which the protein stability index amounted to 2.6 ± 0.082 (doa10∆), 2.87 ± 0.087 (pdr5∆), 2.65 ± 0.062 (san1∆) and 2.81 ± 0.095 (ubr1∆).

Regarding SNEFVPNTSDNNNNSNN [SWI1], the protein stability index reads like this: (doa10∆) 2.59 ± 0.1; (pdr5∆) 2.79 ± 0.11; (san1∆) 2.71 ± 0.095; (ubr1∆) 2.88 ± 0.066.

QLEYKRGEIREIEQVCK [MED7] showed a protein stability index (doa10∆) of 1.49 ± 0.11, a protein stability index (pdr5∆) of 1.53 ± 0.069, a protein stability index (san1∆) of 2.2 ± 0.18 and a protein stability index (ubr1∆) of 1.45 ± 0.07.

Consider HNLHPQIGQVPLAPAPI [SNF5], for which the protein stability index was determined as 2.54 ± 0.062 (doa10∆), 2.23 ± 0.065 (pdr5∆), 2.56 ± 0.059 (san1∆) and 2.76 ± 0.063 (ubr1∆).

For TCQILESGEDEAEFSLR [RRP46], the protein stability index is, setting by setting: (pdr5∆) 2.62 ± 0.28; (ubr1∆) 3.46 ± 0.19.

With AMFEICLKRGWGHPTRM [BRR2], the protein stability index reads like this: (san1∆) 2.21 ± 0.14; (ubr1∆) 2.96 ± 0.18.

Turning to TSKMNLSEDVNLETLVT [RPT2], the protein stability index is, setting by setting: (doa10∆) 2.6 ± 0.14; (pdr5∆) 2.85 ± 0.16; (san1∆) 2.62 ± 0.15; (ubr1∆) 2.78 ± 0.11.

As to KYLDQVLDHQRAIPFRR [RPL17B], the protein stability index reads like this: (doa10∆) 2.78 ± 0.12; (pdr5∆) 2.35 ± 0.076; (san1∆) 1.87 ± 0.13; (ubr1∆) 1.61 ± 0.066.

In the case of TARVMGGLKNGVLYQGN [DIS3], the protein stability index reads like this: (doa10∆) 3.19 ± 0.069; (pdr5∆) 3.3 ± 0.071; (san1∆) 3.06 ± 0.047; (ubr1∆) 3.13 ± 0.056.

These data come from the supplement of paper PMC9732359.
